B1: GST-SHARPIN^WT [not stated] / recombinant RNF31 [not stated] (parent complex)
chain 1: MAPPAGGAAAAASDLGSAAVLLAVHAAVRPLGAGPDAEAQLRRLQLSADPERPGRFRLELLGAGPGAVNLEWPLESVSYTIRGPTQHELQPPPGGPGTLSLHFLNPQEAQRWAVLVRGATVEGQNGSKSNSPPALGPEACPVSLPSPPEASTLKGPPPEADLPRSPGNLTEREELAGSLARAIAGGDEKGAAQVAAVLAQHRVALSVQLQEACFPPGPIRLQVTLEDAASAASAASSAHVALQVHPHCTVAALQEQVFSELGFPPAVQRWVIGRCLCVPERSLASYGVRQDGDPAFLYLLSAPREAPATGPSPQHPQKMDGELGRLFPPSLGLPPGPQPAASSLPSPLQPSWSCPSCTFINAPDRPGCEMCSTQRPCTWDPLAAAST
chain 2: MPGEEEERAFLVAREELASALRRDSGQAFSLEQLRPLLASSLPLAARYLQLDAARLVRCNAHGEPRNYLNTLSTALNILEKYGRNLLSPQRPRYWRGVKFNNPVFRSTVDAVQGGRDVLRLYGYTEEQPDGLSFPEGQEEPDEHQVATVTLEVLLLRTELSLLLQNTHPRQQALEQLLEDKVEDDMLQLSEFDPLLREIAPGPLTTPSVPGSTPGPCFLCGSAPGTLHCPSCKQALCPACDHLFHGHPSRAHHLRQTLPGVLQGTHLSPSLPASAQPRPQSTSLLALGDSSLSSPNPASAHLPWHCAACAMLNEPWAVLCVACDRPRGCKGLGLGTEGPQGTGGLEPDLARGRWACQSCTFENEAAAVLCSICERPRLAQPPSLVVDSRDAGICLQPLQQGDALLASAQSQVWYCIHCTFCNSSPGWVCVMCNRTSSPIPAQHAPRPYASSLEKGPPKPGPPRRLSAPLPSSCGDPEKQRQDKMREEGLQLVSMIREGEAAGACPEEIFSALQYSGTEVPLQWLRSELPYVLEMVAELAGQQDPGLGAFSCQEARRAWLDRHGNLDEAVEECVRTRRRKVQELQSLGFGPEEGSLQALFQHGGDVSRALTELQRQRLEPFRQRLWDSGPEPTPSWDGPDKQSLVRRLLAVYALPSWGRAELALSLLQETPRNYELGDVVEAVRHSQDRAFLRRLLAQECAVCGWALPHNRMQALTSCECTICPDCFRQHFTIALKEKHITDMVCPACGRPDLTDDTQLLSYFSTLDIQLRESLEPDAYALFHKKLTEGVLMRDPKFLWCAQCSFGFIYEREQLEATCPQCHQTFCVRCKRQWEEQHRGRSCEDFQNWKRMNDPEYQAQGLAMYLQENGIDCPKCKFSYALARGGCMHFHCTQCRHQFCSGCYNAFYAKNKCPEPNCRVKKSLHGHHPRDCLFYLRDWTALRLQKLLQDNNVMFNTEPPAGARAVPGGGCRVIEQKEVPNGLRDEACGKETPAGYAGLCQAHYKEYLVSLINAHSLDPATLYEVEELETATERYLHVRPQPLAGEDPPAYQARLLQKLTEEVPLGQSIPRRRK

The variants in the experiment derive from B1. Briefly: ELISA-based binding assay; n = 3; parent: 1; read off a plot. (An ELISA detects its analyte on a solid surface through an enzyme-linked reagent.)
As for chain 1 I272A, the response is approximately 0.45 Abs 450nm.

On to chain 1 V267A, for which the response is approximately 0.69 Abs 450nm.

chain 1 L261A, chain 1 F263A: the response is approximately 0.7 Abs 450nm.

For chain 1 L276A, the response was approximately 0.49 Abs 450nm.

These data come from article PMC4658161, “Mutually Exclusive Roles of SHARPIN in Integrin Inactivation and NF-κB Signaling” (PLoS ONE, 2015).
